In the supplement of paper PMC9112550, “Optimization of the antimicrobial peptide Bac7 by deep mutational scanning” (BMC Biology, 2022):

system: Escherichia coli TOP10; assay: shrunken log2 fold change of peptide-encoding DNA abundance (4.5 h post-induction vs induction); higher = less antimicrobial activity (less host growth inhibition); settings: time post-induction: 4.5 h; library: site-saturation at positions 5, 18, 19, 20
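Further: peptides expressed intracellularly from a pBAD plasmid library in pooled LB shake-flask culture, induced with 0.3% L-arabinose, DNA abundance read by NGS, three biological replicates, DESeq2 with apeglm shrinkage.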

| Sequence | shrunken log2 fold change |
| --- | --- |
| RRIRTRPPRLPRPRPRPTQLPRP | -0.319 |
| RRIRTRPPRLPRPRPRPTQQPRP | 0.175 |
| RRIRTRPPRLPRPRPRPTRAPRP | 0.687 |
| RRIRTRPPRLPRPRPRPTRKPRP | 0.443 |
| RRIRTRPPRLPRPRPRPTSMPRP | 0.308 |
| RRIRTRPPRLPRPRPRPTTYPRP | -0.441 |
| RRIRTRPPRLPRPRPRPTVTPRP | 0.0797 |
| RRIRTRPPRLPRPRPRPTWGPRP | 0.31 |
| RRIRTRPPRLPRPRPRPTWLPRP | 0.511 |
| RRIRTRPPRLPRPRPRPTYLPRP | -0.827 |
| RRIRTRPPRLPRPRPRPVADPRP | 0.0403 |
| RRIRTRPPRLPRPRPRPVATPRP | 0.299 |
| RRIRTRPPRLPRPRPRPVAYPRP | -0.502 |
| RRIRTRPPRLPRPRPRPVCEPRP | 0.243 |
| RRIRTRPPRLPRPRPRPVCTPRP | 0.162 |
| RRIRTRPPRLPRPRPRPVDMPRP | -0.238 |
| RRIRTRPPRLPRPRPRPVECPRP | 0.0216 |
| RRIRTRPPRLPRPRPRPVEEPRP | -0.08 |
| RRIRTRPPRLPRPRPRPVEGPRP | -0.194 |
| RRIRTRPPRLPRPRPRPVHTPRP | 0.243 |
| RRIRTRPPRLPRPRPRPVIVPRP | -0.314 |
| RRIRTRPPRLPRPRPRPVKIPRP | -1.21 |

| Sequence | shrunken log2 fold change |
| --- | --- |
| RRIRTRPPRLPRPRPRPVKMPRP | -0.0502 |
| RRIRTRPPRLPRPRPRPVKYPRP | 0.0856 |
| RRIRTRPPRLPRPRPRPVLGPRP | 0.304 |
| RRIRTRPPRLPRPRPRPVLQPRP | 4.38 |
| RRIRTRPPRLPRPRPRPVMKPRP | 0.00771 |
| RRIRTRPPRLPRPRPRPVMNPRP | -0.143 |
| RRIRTRPPRLPRPRPRPVMSPRP | -0.123 |
| RRIRTRPPRLPRPRPRPVNEPRP | -0.103 |
| RRIRTRPPRLPRPRPRPVNNPRP | -0.0819 |
| RRIRTRPPRLPRPRPRPVNVPRP | -0.172 |
| RRIRTRPPRLPRPRPRPVPKPRP | 0.0251 |
| RRIRTRPPRLPRPRPRPVPNPRP | 0.123 |
| RRIRTRPPRLPRPRPRPVPQPRP | 0.00694 |
| RRIRTRPPRLPRPRPRPVPSPRP | 0.0454 |
| RRIRTRPPRLPRPRPRPVPWPRP | 0.95 |
| RRIRTRPPRLPRPRPRPVQDPRP | -0.00469 |
| RRIRTRPPRLPRPRPRPVQSPRP | -0.00991 |
| RRIRTRPPRLPRPRPRPVRFPRP | 0.0687 |
| RRIRTRPPRLPRPRPRPVRMPRP | 0.148 |
| RRIRTRPPRLPRPRPRPVSPPRP | -0.194 |
| RRIRTRPPRLPRPRPRPVTCPRP | -0.0382 |
| RRIRTRPPRLPRPRPRPVYRPRP | -0.361 |

| Sequence | shrunken log2 fold change |
| --- | --- |
| RRIRTRPPRLPRPRPRPVYYPRP | -1.24 |
| RRIRTRPPRLPRPRPRPWAEPRP | -0.0837 |
| RRIRTRPPRLPRPRPRPWALPRP | -0.23 |
| RRIRTRPPRLPRPRPRPWCKPRP | -0.202 |
| RRIRTRPPRLPRPRPRPWCSPRP | -0.799 |
| RRIRTRPPRLPRPRPRPWEAPRP | 0.337 |
| RRIRTRPPRLPRPRPRPWEPPRP | -0.0542 |
| RRIRTRPPRLPRPRPRPWGRPRP | 0.00879 |
| RRIRTRPPRLPRPRPRPWHDPRP | -0.0708 |
| RRIRTRPPRLPRPRPRPWIRPRP | -0.0303 |
| RRIRTRPPRLPRPRPRPWIVPRP | -0.0452 |
| RRIRTRPPRLPRPRPRPWLDPRP | -0.181 |
| RRIRTRPPRLPRPRPRPWLIPRP | 0.00287 |
| RRIRTRPPRLPRPRPRPWMFPRP | -0.355 |
| RRIRTRPPRLPRPRPRPWPPPRP | 0.154 |
| RRIRTRPPRLPRPRPRPWPTPRP | 0.371 |
| RRIRTRPPRLPRPRPRPWQDPRP | -0.326 |
| RRIRTRPPRLPRPRPRPWQSPRP | 0.0475 |
| RRIRTRPPRLPRPRPRPWRQPRP | 0.0481 |
| RRIRTRPPRLPRPRPRPWRRPRP | 0.496 |
| RRIRTRPPRLPRPRPRPWRYPRP | 0.108 |
| RRIRTRPPRLPRPRPRPWTAPRP | -0.124 |

| Sequence | shrunken log2 fold change |
| --- | --- |
| RRIRTRPPRLPRPRPRPWTLPRP | -0.0728 |
| RRIRTRPPRLPRPRPRPWTVPRP | -0.0107 |
| RRIRTRPPRLPRPRPRPYDFPRP | -0.385 |
| RRIRTRPPRLPRPRPRPYFAPRP | -0.193 |
| RRIRTRPPRLPRPRPRPYFNPRP | -1.03 |
| RRIRTRPPRLPRPRPRPYHMPRP | -0.293 |
| RRIRTRPPRLPRPRPRPYHQPRP | -0.182 |
| RRIRTRPPRLPRPRPRPYHRPRP | 0.0446 |
| RRIRTRPPRLPRPRPRPYKSPRP | -0.118 |
| RRIRTRPPRLPRPRPRPYMCPRP | -0.827 |
| RRIRTRPPRLPRPRPRPYPFPRP | -0.0603 |
| RRIRTRPPRLPRPRPRPYQRPRP | -0.0311 |
| RRIRTRPPRLPRPRPRPYRIPRP | -0.0176 |
| RRIRTRPPRLPRPRPRPYRVPRP | 0.0325 |
| RRIRTRPPRLPRPRPRPYTNPRP | -0.0771 |
| RRIRTRPPRLPRPRPRPYTSPRP | -0.00661 |
| RRIRTRPPRLPRPRPRPYYAPRP | -0.489 |
| RRIRTRPPRLPRPRPRPYYNPRP | -0.719 |
| RRIRVRPPRLPRPRPRPAALPRP | 0.0637 |
| RRIRVRPPRLPRPRPRPACVPRP | -0.0412 |
| RRIRVRPPRLPRPRPRPAFGPRP | 0.18 |
| RRIRVRPPRLPRPRPRPAGNPRP | 0.141 |

| Sequence | shrunken log2 fold change |
| --- | --- |
| RRIRVRPPRLPRPRPRPAHVPRP | 0.0119 |
| RRIRVRPPRLPRPRPRPAKIPRP | 0.117 |
| RRIRVRPPRLPRPRPRPAKMPRP | 0.0161 |
| RRIRVRPPRLPRPRPRPAKRPRP | 0.615 |
| RRIRVRPPRLPRPRPRPALEPRP | 0.495 |
| RRIRVRPPRLPRPRPRPALGPRP | 0.423 |
| RRIRVRPPRLPRPRPRPAMAPRP | 0.418 |
| RRIRVRPPRLPRPRPRPAMSPRP | -0.096 |
| RRIRVRPPRLPRPRPRPAQPPRP | 0.228 |
| RRIRVRPPRLPRPRPRPARAPRP | 0.566 |
| RRIRVRPPRLPRPRPRPARCPRP | 0.205 |
| RRIRVRPPRLPRPRPRPARSPRP | -0.024 |
| RRIRVRPPRLPRPRPRPARWPRP | 0.586 |
| RRIRVRPPRLPRPRPRPAWQPRP | -0.00433 |
| RRIRVRPPRLPRPRPRPAWYPRP | 0.0171 |
| RRIRVRPPRLPRPRPRPCANPRP | -0.129 |
| RRIRVRPPRLPRPRPRPCCTPRP | -0.247 |
| RRIRVRPPRLPRPRPRPCEGPRP | -0.0149 |
| RRIRVRPPRLPRPRPRPCFGPRP | -0.263 |
| RRIRVRPPRLPRPRPRPCFMPRP | -0.302 |
| RRIRVRPPRLPRPRPRPCGYPRP | 0.0222 |
